{"source": "the DeepSol protein solubility set"}
{"experiment": "soluble on expression in E. coli; label from the status in PepcDB or PDB records"}
{"sequence": "MEKLYDVIVVGAGTSGMMAAISAAEQGARVLLIEKNKKAGKKLLMTGGGRCNVTNNRPVDDLIAHIPGNGKFLYSTFAQWNNFDIMNFFESQGVHLKEEDHGRMFPVTNKSKTIIEALLNRLKELDVTLLFSTRVEKLIHKEHKIYGIRTEFEEFHAPAIILTTGGRTYPSTGSTGDGYKIVKRVGHTVTPLYATESPLISDEPYIQEKTLQGLSLQDITLRVLNKKGRVLTEHTMDLLFTHFGISGPAALRCSSFVNKELEKTGEPVTLSLDCFPTQTKQELIHILTEKSKATKKNLVNAWHGILPERLLVFFLERLEMDHLTGQQASQKQIQDFVQLCKEFKLSINKTFPIEKSFVTGGGVSLKEIYPKTLESKIIDGLYFAGELLDVNGYTGGFNITAAFATGHVAGMNAGQRA", "soluble on expression in E. coli": "soluble"}
{"sequence": "MEKNMKIELITIKEFIEQAECYFRNYMDGLRRNAPDDFYYFLNNKYNMNDIMESIIKKTRYHFYDDTEEGKRNRIYGEVNHCKVKQHLRQLWIVYKCVYR", "soluble on expression in E. coli": "soluble"}
{"sequence": "MEKYAVILGKNPELSLVELKAFSRRFRLGVRILEERIYGSNKSFAIIQAKEDIEKYFRWIGGSLKLVRLIGEGVDSIRDLEYSKLFTVSVYGRRVDWKEWRRFGSMIKEVFKEKDSAKFFKPANTYAMPSELILKGFPKVKDVVLLFVDDKVLVGETVRVTDPFELKKLDVERPVVRPTISIPPRLARVMVNLSEIRRGNVLDPFCGTGTIVMELTLQGLNAYGTDIEEGRVRDAKKNIDWLRKEFRIRKYPVLKVCDVRRLRKCFPRTRFDAIITEPYMGKPLKYKPSRGEAIKIAKGLDRLYYQAFESFADVLKRGSIIVFVFPAFSLSNGEVYRRNRPWLEELGFKVLYRVSEGEEEHRIVRDIHVIKFIR", "soluble on expression in E. coli": "soluble"}
{"sequence": "MELDLISYELDEKTKEGIEKVVEKFFTKAEPDLVLIFDKAGRILACKGMDISDTYSEFISSILSALFFASEELTSMLDKNDEMKDVFYETKNRVFLMARLEKDFLIGVISRKNLSLGSIRLFFNHLVSDLNAVLKNLKEVEKKSLKISKEELKKKLDQILGS", "soluble on expression in E. coli": "not soluble"}
{"sequence": "MELGKQRPVVYVVSDSVGETAELVVKAAASQFSGAGIEVRRIPYVEDKETVDEVIQLAKQADAIIAFTLVVPGIRTYLLEKATEAKVETVDIIGPMLEKISSLTKEEPRYEPGIVYRLDEDYFRKVEAIEFAVKYDDGRDPRGIVRADLVLIGVSRTSKTPLSQYLAHKRLKVANVPLVPEVEPPEELFKLSPKKVIGLKISPEQLNGIRAERLKTLGLKSQANYANIDRIKEELAYAEGIMKRIGCPVIDVSNKAVEETANLISSMFQKMAGDPLEHHHHHH", "soluble on expression in E. coli": "soluble"}
{"sequence": "MELIRFSISIPSKLLEKFDQIIEEIGYENRSEAIRDLIRDFIIRHEWEVGNEEVAGTITIVYNHDEGDVVKALLDLQHEYLDEIISSLHVHMDEHNCLEVIVVKGEAKKIKMIADKLLSLKGVKHGKLVMTSTGKELV", "soluble on expression in E. coli": "soluble"}
{"sequence": "MELKNSISDYTETEFKKIIEDIINCEGDEKKQDDNLEHFISVTEHPSGSDLIYYPEGNNDGSPEAVIKEIKEWRAANGKSGFKQG", "soluble on expression in E. coli": "soluble"}
{"sequence": "MELRVGNRYRLGRKIGSGSFGDIYLGTDIAAGEEVAIKLECVKTKHPQLHIESKIYKMMQGGVGIPTIRWCGAEGDYNVMVMELLGPSLEDLFNFCSRKFSLKTVLLLADQMISRIEYIHSKNFIHRDVKPDNFLMGLGKKGNLVYIIDFGLAKKYRDARTHQHIPYRENKNLTGTARYASINTHLGIEQSRRDDLESLGYVLMYFNLGSLPWQGLKAATKRQKYERISEKKMSTPIEVLCKGYPSEFATYLNFCRSLRFDDKPDYSYLRQLFRNLFHRQGFSYDYVFDWNMLKFGASRAADDAERERRDREERLRH", "soluble on expression in E. coli": "soluble"}
{"sequence": "MELSEPLENYLKEIYEIELLKGYARVSDLILAFNVSPGTVSKALEKLEKIGLIERDNKKIKLTAEGKKIAEKLIRAHRLSERLLTDIIGLDWIRAHQLAHRLEHIWPEDVVDKIDELLGKPLTCPHGHPIPGREVKVNGIKLSEAECNKKYKVIMIIREEEWILSMADELNIKPGVEIKLIKKNENDFVIEIDNKKESIPKALAEEVLVSE", "soluble on expression in E. coli": "soluble"}
{"sequence": "MENCPLVSVIVCAYNAEQYIDESISSIINQTYENLEIIVINDGSTDLTLSHLEEISKLDKRIKIISNKYNLGFINSLNIGLGCFSGKYFARMDADDIAKPSWIEKIVTYLEKNDHITAMGSYLEIIVEKECGIIGSQYKTGDIWKNPLLHNDICEAMLFYNPIHNNTMIMRANVYREHKLIFNKDYPYAEDYKFWSEVSRLGCLANYPEALVKYRLHGNQTSSVYNHEQNETAKKIKRENITYYLNKIGIDIKVINSVSLLEIYHVDKSNKVLKSILYEMYMSLDKYTITSLLHFIKYHLELFDLKQNLKIIKKFIRKINVIF", "soluble on expression in E. coli": "not soluble"}
{"sequence": "MENIFLKRLEFKAFEEDSVFSKIEGLNKFNSLNFKKPITFFSGENGTGKSTLLEAIAVNWGFNPEGGSINFNFSTKDTHLDLHNYLTVGKSVKRATDGFFLRAESFYNVATYAENIDLDFSEYGDKSLHHQSHGESFLNLVNHRFRGNGLYLLDEPEAALSPQRQLALMISIKKLIDEGSQFIIVSHSPILLAMPDSQIISFDKDSPLEITYEESMPYEITSLFLNNKNRILSHLFAELEHHHHHH", "soluble on expression in E. coli": "soluble"}
{"sequence": "MENSEKLANSKEVIAYIAERFPKCFILEGEAKPLKIGIFQDLAERLSDDPKVSKTQLRAGLRQYTSSWRYLHGVKPGASRVDLDGNPCGELEEEHIEHAKATLEESKAKVATRRKEQAKKAREEAKAKKTARAATPPKRRPQPAAKKVEQPVETRALNADEITVGNNVSVNMGKGNMPATIVEINKDDVRIRLSNGLQMVVKAENLRS", "soluble on expression in E. coli": "not soluble"}
{"sequence": "MEPLKHECGIAMVRLRKPLSYYHDKYGTWMYGLNKLYLLMEKQHNRGQEGAGLAVVKLNSRPGEEYLFRERALGANAISEIFDSVHKDFQAYSREELGDAEFAASQIPYAGECYMGHLRYSTTGKSGLTFVHPMIRRSNWRAKCLSICGNFNLTNVDGIFDEITSVGQHPRNMSDTHILLEQIGHRLDREVERLFRIGKEQNLKGMDITHFIEERIDLSNVLKKCSPFWDGGYVMCGLTGSGESYAVRDPWGIRPAFYYIDDEIVVTASERPVIQTVMNLSAEAVRELMPGEAIFVNSKGEPRIERILETKNYQACSFERIYFSRGSDQDIYRERKALGYLLSERILRAIDYDISHTVFSFIPNTAEVAYYGMLEGIDHYLDECKIREIRENPNMSEAKLREILGRKVRSEKVAIKDIKLRTFITEGNSRNDLAAHVYDITYGTVQAGVDNLVVIDDSIVRGTTLRQSIIGIMDRLQPKKIVIVSSSPQIRYPDYYGIDMRKMREFVAFRSAVALLQERGMEQVLHDAYAKALELRKLSSGQEVENVVKTIYKPFTAEEISAKMVELLKPEGVRAKVEIVYQSLEGLHQAIPNHPGDWYFSGDYPTPGGAHLVNEAFISYMEEDYGK", "soluble on expression in E. coli": "not soluble"}
{"sequence": "MEPVLFYGVPHGCSFGSIVALEWLGRPYRLCRIEMPLDTGERTYVRLNPARQTPTLLLEDGRALSESLAILQHLAARDLCRKLGYPQGSAEFDELNFALALLHTECHSAWGALFYLEDADATTTARALTRAARAYGRIDKLLGDRKWLAGEGPSVADAYLAGTARWGRELGYFDLQHDFPRLHRHLEKLEQDPAVRFAHAIEDRLPAQSCGEFRGEVTLAEVASRLLA", "soluble on expression in E. coli": "not soluble"}
{"sequence": "MEPWLVGIDLGGTTIKMAFVTTEGDIVHKWEIPTNTANRGEHIVADIARSLEKTLGQLGGAKERLLAAGIGAPGPVEEETGMLYETVNIGWTNYPLKQRLEEATGLPVSVDNDANLAALGEMWKGAGGGARHLLFVTLGTGVGGGVIANGAIVRGINGAGGEIGHMTMIPDGGARCNCGKTGCLETIASATGIVRIAKEKLTADERPSELRNGDVTAKAVFDAAKAGDALALEVVDEATYYLGWALANAANVTNPEKIVIGGGVSKAGDMLVERVAAHFRRFAFPRVAAGAKLVLATLGNDAGVIGAAWLAKELVGA", "soluble on expression in E. coli": "not soluble"}
{"sequence": "MEQAMLKTLALLVLGMHYWCATGFPVYDYDPSSLQEALSASVAKVNSQSLSPYLFRATRSSLKRVNVLDEDTLVMNLEFSVQETTCLRDSGDPSTCAFQRGYSVPTAACRSTVQMSKGQVKDVWAHCRWASSSESNSSEEMMFGDMARSHRRRNDYLLGFLSDESRSEQFRDRSLEIMRRGQPPAHRRFLNLHRRARVNSGFE", "soluble on expression in E. coli": "soluble"}
{"sequence": "MEQIGLIGYGSMADMIARQLLKHEQIKENELFIETRTKGERLRALMSDYPNVSADPLENWANTCQLILICVPPLHVIETMRRLYPYVNRNTHIVSIAAGVPLRLLEAETEAGISRVIPAITSEAEAGISLVVHSEALAAEKKERLNELLSVFSRVREIKESNLDVASNLTSSAPGFIAAIFEELALSAVRNSSLSKEEAFDFLIHSLYGTGKMLIEKNMSFEETLERVATKGGITGEGAEVIHASVPDVFDEVFERTLRKYELLTEQVGKQTLEHHHHHH", "soluble on expression in E. coli": "soluble"}
{"sequence": "MEQIHGGDSNSGGGGGGSSRNDEISVTRASRFDALPEDCISKVISHTSPRDACVVASVSKSVKSAAQSDLVWEMFLPSEYSSLVLQSANHLSKKEIFLSLADNSVLVENGKKSFWVEKASGKKCYMLSAMELTIIWGDSPAYWKWITVPESKFEKVAELRNVCWFEVRGKISCGMLSKGTHYSVYVVFKTANGRSYGFDLVPVEAGVGFVGKVATKKSVYFESGNADSRSATSHYSGISEEEEEVEGERERGMNVVGPKERVDGWSEVELGKFYINNGGCGDDGSDEIEISIMETQNGNWKSGLIIQGIEIRPERSN", "soluble on expression in E. coli": "soluble"}
{"sequence": "MEQQNTLNDIKQTIVFNASIQKVWSVVSTAEGIASWFMPNDFVLEVGHEFHVQSPFGPSPCKVLEIDEPNHLSFSWDTDGWVVSFDLKDLGDNKTEFTLIHGGWKHPDEILPKANAKSSIIRDRMSGGWVAIVNEKLKKVVEG", "soluble on expression in E. coli": "soluble"}
{"sequence": "MEQTLRVSVFGATGYTGIELLRSLLTHPHFEVKNLISQSYKGKKVREVLPFFSNTYISEIEFLEEPVEDYELAFLCLPHEVSYEIVPKLLSQGKKVVDLSGAYRIKSPKAYEEFYGFKHEREDILQRAVYGLPEVFREEIKNSDLVANPGCYPTATLLAIYPFLKERVGIESVIVHALSGVSGAGRKPKQQFHFPEMTENFFNYAVEKHRHTPEMEDVIRRVYGREVKVRFTPTVVPTSRGMISTVYLKSEKLNVKELFKEVYEDEIFVKVVDEPPQTKWVLGTNYCFIYPHYDERTGYYVIISAIDNLGKGASLQAVQNANLMFGLAEDDGLLQLPVFP", "soluble on expression in E. coli": "soluble"}
{"sequence": "MERNKLARQIIDTCLEMTRLGLNQGTAGNVSVRYQDGMLITPTGIPYEKLTESHIVFIDGNGKHEEGKLPSSEWRFHMAAYQSRPDANAVVHNHAVHCTAVSILNRSIPAIHYMIAAAGGNSIPCAPYATFGTRELSEHVALALKNRKATLLQHHGLIACEVNLEKALWLAHEVEVLAQLYLTTLAITDPVPVLSDEEIAVVLEKFKTYGLAIEE", "soluble on expression in E. coli": "soluble"}
{"sequence": "MERNYEESALFEHQFWLKVLTDHSQFLLDALAPKEKEDIKKATYFVETFTNLLNKVRNVNLIAFSKEAERAAKEIRTFKLSIIQKQLEGKITIHFTPTFINHMVNEVEEYITVLEFLNKGEVPPVFHELHYHLVWLTDAAGHAGSISGGLDLVEKRLKEKSEEFTKHFEQFYLKAVEMTGYLRTELHHFPALKKFTKDVSLELKLFSHFLHEVEELELSNEILSALSARMADHMAREECYYLLKLAQSSGLEMPKCNPL", "soluble on expression in E. coli": "not soluble"}
